B1: ALDH8A1 (parent)
chain: FTGSQPTAERITQLSAPHCKKLSL
B2: KLHL13 (parent)
chain: TGEFLKLPFERLAFVLSSNSLKHC

Variants of: B1
Test: protein stability index of a GFP-peptide fusion (GPS, HEK-293T) (PSI 1-6); higher = more stable
Conditions: c terminus: a fixed tail appended
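Note: lentivirally expressed fusions sorted by FACS into six bins by GFP to DsRed ratio, PSI derived from sequencing read proportions per bin multiplied by bin number.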

Protein stability index of substitutions, site by site:
F1: D 4.38; E 4.26; K 3.96; L 3.65; S 3.92; N 4.34; I 3.86; A 4.03; W 3.35; C 3.48; R 3.78; V 3.82; Y 2.47; Q 4.31; M 3.62; P 4.14; G 4.34; H 4.18; T 4.27
A8: V 2.45; M 2.58; W 3.71; C 2.09; Q 2.4; L 2.42; H 2.61; T 2.24; I 2.46; E 2.6; P 2.3; R 2.6; Y 2.27; K 1.8; N 2.09; G 2.95; F 1.42; S 1.9; D 2.16
Q5: R 2.39; A 2.08; M 2.19; S 3.01; F 1.68; C 2.45; G 2.15; L 1.65; W 4.02; E 2.57; H 2.14; P 2.99; D 2.19; N 2.33; I 2.39; T 2.24; V 2.38; Y 2.36; K 2.06
S4: T 2.69; Y 2.22; R 1.62; P 2.67; M 1.98; K 2.6; N 2.21; I 2.36; V 2.75; E 3.18; D 3.06; F 2.03; G 1.7; H 2.59; L 2.1; A 2.56; C 2.31; Q 2.02; W 3.16
P6: D 2.43; T 1.77; Q 2.38; H 2.25; Y 1.92; R 2.15; W 3.07; V 2.07; S 2.1; F 1.9; N 2.71; I 2.07; E 2.79; M 2.56; A 1.94; G 1.96; C 2.42; K 2.7; L 2.04
T7: E 2.62; L 2.27; G 2.11; D 2.98; F 2.99; Q 2.86; S 2.08; K 2.32; Y 2.61; C 2; I 2.39; V 2; H 2.02; A 3.05; P 2.67; W 1.2; R 2.55; M 2.12; N 2.83
T2: C 1.86; R 3.37; Y 3.35; G 3.19; K 3.42; A 2.38; V 1.02; W 2.53; H 2.2; Q 3.24; L 2.74; D 3.95; I 2.07; N 3.41; E 3.86; M 3.07; F 2.89; P 3.41; S 3.11
G3: C 2.68; N 2.62; R 2.71; D 3.15; V 2.44; F 1.97; T 2.69; Y 2.54; M 2.56; A 2.88; H 2.4; P 2.07; K 3.45; L 2.6; Q 2.38; W 2.66; S 2.65; I 2.77; E 3.56

Variants of: B2
Test: as above
Conditions: c terminus: a fixed tail appended

Protein stability index of substitutions, site by site:
K22: E 2.2; D 2.77; Q 4.87; I 2.96; Y 1.96; T 2.34; N 4.57; A 2.4; P 3.24; M 3.25; W 3.33; C 4.71; V 3.78; S 4.04; G 2.18; R 2.48; L 3.44
C24: L 2.62; D 2.13; K 1.61; N 2.94; R 2.4; Y 3.19; W 1.03; A 1.75; H 2.56; V 2.76; G 1.9; M 2.65; F 3.88; Q 1.6; T 2.1; S 1.76; I 4.16; E 1.81
V15: I 2; P 2.53; W 3.3; C 2.21; E 1.78; T 1.59; H 2.27; A 1.84; D 1.82; Y 1.06; R 1.53; F 2.39; G 3.31; M 1.96; N 1.95; Q 2.31; K 1.81; S 2.32; L 3.05
N19: M 3.78; R 2.56; D 1.56; T 2.98; L 3.66; E 2.44; P 2.62; C 4.21; W 3.01; Q 1.81; Y 3.05; G 3.21; V 2.24; K 2.22
H23: Q 4.44; P 1.85; R 1.99; T 2.17; M 2.02; N 2.42; C 2.87; V 2.8; W 1.88; D 2.27; Y 3.32; K 2.49; S 4.04
S20: F 2.55; L 3.05; K 2.43; H 1.49; G 2.59; N 3.25; I 2.7; C 3.52; T 2.98; P 2.4; M 3.42; D 2.29; E 2.34; R 1.87
A13: Q 2.26; R 1.85; Y 3.93; T 2.76; S 1.99
L16: G 2.23; H 1.89; K 2.65; S 2.68; P 2.33; R 2.21; E 2.42; W 2.23; D 2.37; M 2.25; A 1.74; V 3.18; Q 2.24; C 1.39; I 2.89; Y 1.93; N 2.93; T 1.75
S18: D 2.42; N 1.98; K 3.09; H 2.48; Q 1.61; W 2.81; Y 2.79; L 3.02; V 4.13; P 2.64; F 2.48; C 3.11; A 1.35; E 2.37
L21: C 3.31; P 2.39; V 1.72; G 1.75; D 2.79; F 1.42; S 1.44; Q 1.91; K 1.26; R 1.63; N 1.88; H 2.14; E 2.45; M 3.88; I 3.4; T 2.49; Y 2.33; A 2.92
S17: R 2.82; P 1.7; I 1.71; Y 2.46; W 3.66; A 3.79; D 1.06; K 1.05; E 1.86; Q 1.72; C 5.02; M 2.2; L 2.06; N 2.33
F14: T 2.21; K 1.79; R 1.4; A 1.42; V 1.13; Y 2.36; L 2.31; E 2.33; C 1.95; N 2.33; H 1.8; D 1.98; G 2.54; P 2.69; Q 1.66; W 3.04; S 2.21; M 2.74
